First the molecules themselves.
B1: TPR 5TU (parent)
chain: GGAUCUUCUCGAUCUAACAAAAAAGACAAAUCUGCCACAAAGCUUGAGAGCAUCUUCGGAUGCAGAGGCGGCAGCCUUCGGUGGCGCGAUAGCGCCAACGUUCUCAACUAUGACACGCAAAACGCGUGCUCCGUUGAAUGGAGUUUAUCAUG

Fewer inactive variants are shown than the library holds.

In this data set the parent is B1. Briefly: polymerase ribozyme fitness, log enrichment relative to wild type (log ratio); higher = more active; in vitro selection for triplet polymerase activity. In short, it runs like this:
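After PCR construction and transcription, each subunit's mutant library from a heterodimeric triplet polymerase ribozyme was annealed with a biotinylated primer, the partner subunit and triplets. Incubation was frozen, at −7 °C, and extended constructs were gel-excised, bound to streptavidin beads and amplified by RT-PCR, in one selection round done in triplicate. Fitness is the logarithm of a genotype's enrichment divided by that of the wild type, from inverse-variance-weighted replicate averages of Illumina-sequenced inputs and outputs. The base of the logarithm is 2, and genotypes needed ≥10 input reads and ≥1 read per output.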
As for G50U C95A C125G, the “polymerase ribozyme fitness (log ratio)” value was -0.894.
Next, C57U U101A: 0.41; A20U A26U A29U G46A A49C A106U: at most -4.2.
In the case of A17U C85U U104G, the “polymerase ribozyme fitness (log ratio)” value was -1.01.
For the variant C57A A89G A91G U145C U151G, the “polymerase ribozyme fitness (log ratio)” value is at most -4.2.
Next, A119U G140U: -3.25; A16U A41G: -1.88; U53A G80C: at most -4.2.
Next, C10U A28U G94A U127G: -4.04.
For C5A A66G C96U A115G U139G G140A, the “polymerase ribozyme fitness (log ratio)” value is at most -4.2.
Next, C14U A91G: -3.98; A22U C95U C103G: -1.55.
Next, A3U C54A: -2.21.
Next, G58U C105U A106G C149U: 0.147; G59A G92C: -2.78; G86A C105G A138U: at most -4.2.
A20G C85A: the “polymerase ribozyme fitness (log ratio)” value is -2.13.
Next, A20C C54U G70C C93A: at most -4.2.
Next, U61A G92C: -3.57.
Next, G83C C132U A142U: at most -4.2; A73U G83U A122C U127A: at most -4.2; C69G C76A G152U: -4.17.
In the case of A40C C87U G117C, the “polymerase ribozyme fitness (log ratio)” value was -0.313.
Next, A23U A119G A120U G152A: at most -4.2; G59A C76G: at most -4.2; A47U C95U A115G: -2.68.
Next, A30U C35U A52C C96U A107G C108G C114A: at most -4.2; A17U A24G A26G A47G G50A G65C U111C A142U: at most -4.2.
Next, U31C A49C G94U A121U: at most -4.2; U104A G143A: -1.63.
A24G A47G G48A C75U G86A: the “polymerase ribozyme fitness (log ratio)” value was at most -4.2.
Next, A29U A37G C54U C87G C116A: at most -4.2.
As to C87A U127G, the “polymerase ribozyme fitness (log ratio)” value was at most -4.2.
As for U61G C95G U135C, the “polymerase ribozyme fitness (log ratio)” value is -4.17.
Next, C5A G92C: -1.76; A52G C69U G143A: -2.71; C75U G92C U109A U146G: -3.93.
Next, C51A C99G G141C: at most -4.2.
G94U C95A G152A: the “polymerase ribozyme fitness (log ratio)” value was -3.85.
A37U U44A G86C: the “polymerase ribozyme fitness (log ratio)” value was at most -4.2.
Turning to U13A G74C C93U G124A, the “polymerase ribozyme fitness (log ratio)” value was at most -4.2.
Next, A49U A52G C96U C99G: at most -4.2; C10U A22G U44A G100U C103A: at most -4.2; G59A A137U G141C: -3.95.
Next, A37U A89U U146A: -1.62; A3C A12U G58C C118U: -1.52.
Next, A19U G34A A47U C76A C116U: at most -4.2; A21U A39C U90C C95U A97U: at most -4.2; A28U U61A G74C: at most -4.2.
On to G25U C76G G92A A119U U145A C149A U151G, for which the “polymerase ribozyme fitness (log ratio)” value was at most -4.2.
Next, C76U C85A: -2.44; A29U C103U: at most -4.2.
Next, A52G U53G: -3.21; C85G C114A A150C: at most -4.2; A12U A24U C43A G46A U53A U55A C57U A60G G80U C93G: at most -4.2.
With A3G C18U G50C C87G A97G C99U U146G, the “polymerase ribozyme fitness (log ratio)” value is at most -4.2.
Next, A21C C63U A73C C95A A98U: -3.29; U7G C8A G46C C63U G83C C85G C114G C149A: at most -4.2; C14A G58C: -1.28.
Next, A3C U9A G11A C35G C75A G117A U145C: at most -4.2; C35U C125A U134C: -0.129; C131G G133U: -3.77.
Next, G50A G88U U127C: at most -4.2.
On to A23C C35A C36G C54A A137G U148G, for which the “polymerase ribozyme fitness (log ratio)” value is at most -4.2.
Consider A24C A73G G86U C99G C149G, for which the “polymerase ribozyme fitness (log ratio)” value is at most -4.2.
Next, A52G A97U: -0.8; G81C A120G: -0.127; A47U C54A C75G G140A: at most -4.2.
Turning to G94C, the “polymerase ribozyme fitness (log ratio)” value was -0.474.
Consider C85U G94A A121C A138U, for which the “polymerase ribozyme fitness (log ratio)” value was -4.08.
Next, A20C A52G C79A G133C U146G: at most -4.2; U55A C95U C105A C108G: at most -4.2.
Next, A12U C14G: -2.05.
With U101G A115G, the “polymerase ribozyme fitness (log ratio)” value was -0.695.
Next, A12C U53A C125G A150U U151G: at most -4.2; A37C G70C C87A C125U: at most -4.2.
Next, C35U U77A C149A: at most -4.2; C5G U77A G94U G140C G152A: at most -4.2; G34U U55A A91G G94U: at most -4.2.
Next, A66C C76U A91U A97U C114U A142G: at most -4.2.
Consider A17C A52C C79A G81A G84U A110G G112C, for which the “polymerase ribozyme fitness (log ratio)” value was at most -4.2.
In the case of U15C U56G A113U, the “polymerase ribozyme fitness (log ratio)” value was -0.657.
With A20U A21G C51U G133C, the “polymerase ribozyme fitness (log ratio)” value was at most -4.2.
Turning to C27U A41C G81U C96A, the “polymerase ribozyme fitness (log ratio)” value was -2.31.

The values are drawn from the RNAGym collection of RNA variant scans (doi:10.1073/pnas.2313332121).
